Assay results taken from paper PMC9482650, “Quantitative fragmentomics allow affinity mapping of interactomes” (Nature Communications, 2022).

T1: DLG3_1, Q92796
T1 sequence (Q92796 125-227, limits assumed, looked up): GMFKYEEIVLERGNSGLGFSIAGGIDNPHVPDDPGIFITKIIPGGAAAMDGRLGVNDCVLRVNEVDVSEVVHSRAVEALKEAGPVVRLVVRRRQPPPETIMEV

T2: FRMPD1, Q5SYB0
T2 sequence (Q5SYB0 52-145, limits assumed, looked up): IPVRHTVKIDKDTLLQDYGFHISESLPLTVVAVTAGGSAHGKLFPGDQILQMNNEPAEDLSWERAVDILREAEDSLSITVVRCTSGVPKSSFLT

T3: LIN7B, Q9HAP6
T3 sequence (Q9HAP6 88-185, limits assumed, looked up): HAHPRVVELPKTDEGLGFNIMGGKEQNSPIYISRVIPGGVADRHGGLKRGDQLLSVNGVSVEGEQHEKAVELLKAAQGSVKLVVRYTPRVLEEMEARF

T4: LNX2_2, Q8N448
T4 sequence (Q8N448 334-432, limits assumed, looked up): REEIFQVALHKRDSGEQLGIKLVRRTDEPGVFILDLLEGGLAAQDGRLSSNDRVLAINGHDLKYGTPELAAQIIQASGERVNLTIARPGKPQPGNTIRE

T5: MPP2, Q14168
T5 sequence (Q14168 180-250, limits assumed, looked up): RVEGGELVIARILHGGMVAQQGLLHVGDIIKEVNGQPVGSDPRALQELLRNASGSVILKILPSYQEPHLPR

T6: PCLO, Q9Y6V0
T6 sequence (Q9Y6V0 4491-4600, limits assumed, looked up): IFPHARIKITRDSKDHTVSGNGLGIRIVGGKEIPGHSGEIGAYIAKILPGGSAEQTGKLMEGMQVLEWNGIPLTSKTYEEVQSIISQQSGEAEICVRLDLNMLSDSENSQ

T7: PDZRN3_1, Q9UPQ7
T7 sequence (Q9UPQ7 244-349, limits assumed, looked up): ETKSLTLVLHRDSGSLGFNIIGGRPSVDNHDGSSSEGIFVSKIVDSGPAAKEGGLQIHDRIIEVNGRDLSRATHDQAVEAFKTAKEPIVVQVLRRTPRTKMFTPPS

T8: RHPN1, Q8TCX5
T8 sequence (Q8TCX5 508-602, limits assumed, looked up): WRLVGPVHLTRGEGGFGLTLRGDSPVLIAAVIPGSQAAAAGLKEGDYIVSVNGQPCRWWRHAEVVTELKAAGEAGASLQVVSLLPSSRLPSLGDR

T9: SNTA1, Q13424
T9 sequence (Q13424 82-180, limits assumed, looked up): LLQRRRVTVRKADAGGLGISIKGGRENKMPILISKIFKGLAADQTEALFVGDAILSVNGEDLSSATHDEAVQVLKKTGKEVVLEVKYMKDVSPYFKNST

T10: SNTG2, Q9NY99
T10 sequence (Q9NY99 68-166, limits assumed, looked up): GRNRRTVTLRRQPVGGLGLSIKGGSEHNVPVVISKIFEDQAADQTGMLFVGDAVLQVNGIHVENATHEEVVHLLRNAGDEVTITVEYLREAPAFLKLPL

T11: TX1BP3, O14907
T11 sequence (O14907 10-122, limits assumed, looked up): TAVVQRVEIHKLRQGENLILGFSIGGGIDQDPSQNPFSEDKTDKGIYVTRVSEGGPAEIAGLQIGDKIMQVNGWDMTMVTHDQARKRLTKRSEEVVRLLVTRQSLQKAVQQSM


These binders were tested against T1, DLG3_1, Q92796 (assay: holdup assay). Conditions: plain residues with an end cap or a label only (N-terminal biotin on a linker: ado-ado).
Set-up: key: below the threshold = too weak to quantify, mostly under pKd 3.1 to 4
In the case of RQSILFSTEV [BCR, P11274], the pKd is reported as 4.17.
Binder PLDSQQHTEV [FAT1, Q14517] has a pKd of 3.8.

These binders were tested against DLG4_2, P78352 (assay: holdup assay). Conditions: plain residues with an end cap or a label only (N-terminal biotin on a linker: ado-ado).
Sequence of DLG4_2, P78352 (P78352 155-259): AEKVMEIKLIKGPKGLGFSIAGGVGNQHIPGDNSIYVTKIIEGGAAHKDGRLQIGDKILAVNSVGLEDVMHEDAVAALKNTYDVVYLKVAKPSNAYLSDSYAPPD
Set-up: key: below the threshold = too weak to quantify, mostly under pKd 3.1 to 4
RQSILFSTEV [BCR, P11274] showed a pKd of 4.81.
PLDSQQHTEV [FAT1, Q14517] showed a pKd of 4.8.

These binders were tested against DLG4_3, P78352 (assay: holdup assay). Conditions: plain residues with an end cap or a label only (N-terminal biotin on a linker: ado-ado).
Sequence of DLG4_3, P78352 (P78352 306-403): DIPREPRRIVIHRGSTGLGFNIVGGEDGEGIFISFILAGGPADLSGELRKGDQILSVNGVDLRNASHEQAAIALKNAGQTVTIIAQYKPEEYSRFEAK
Set-up: key: below the threshold = too weak to quantify, mostly under pKd 3.1 to 4
Work on RQSILFSTEV [BCR, P11274] yielded a pKd of 3.7.
For PLDSQQHTEV [FAT1, Q14517], the pKd was “below the threshold”.

What follows are binders tested against T2, FRMPD1, Q5SYB0 (assay: holdup assay). Conditions: plain residues with an end cap or a label only (N-terminal biotin on a linker: ado-ado).
Set-up: key: below the threshold = too weak to quantify, mostly under pKd 3.1 to 4
With RQSILFSTEV [BCR, P11274] the pKd was “below the threshold”.
For PLDSQQHTEV [FAT1, Q14517], the pKd was “below the threshold”.

What follows are binders tested against FRMPD2_1, Q68DX3 (assay: holdup assay). Conditions: plain residues with an end cap or a label only (N-terminal biotin on a linker: ado-ado).
Sequence of FRMPD2_1, Q68DX3 (Q68DX3 770-861): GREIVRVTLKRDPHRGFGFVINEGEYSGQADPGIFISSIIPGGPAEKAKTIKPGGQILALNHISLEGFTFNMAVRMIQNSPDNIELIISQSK
Set-up: key: below the threshold = too weak to quantify, mostly under pKd 3.1 to 4
RQSILFSTEV [BCR, P11274] was tested, and the pKd was “below the threshold”.
In the case of PLDSQQHTEV [FAT1, Q14517], the pKd is reported as “below the threshold”.

Each binder was assayed against GRIP2_3, Q9C0E4 (assay: holdup assay). Conditions: plain residues with an end cap or a label only (N-terminal biotin on a linker: ado-ado).
Sequence of GRIP2_3, Q9C0E4 (Q9C0E4 238-339): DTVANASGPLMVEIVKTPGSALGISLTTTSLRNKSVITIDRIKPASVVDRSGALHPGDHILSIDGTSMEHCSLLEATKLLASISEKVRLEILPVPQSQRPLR
Set-up: key: below the threshold = too weak to quantify, mostly under pKd 3.1 to 4
Work on RQSILFSTEV [BCR, P11274] yielded a pKd of 3.69.
With PLDSQQHTEV [FAT1, Q14517] the pKd was “below the threshold”.

What follows are binders tested against HTRA1, Q92743 (assay: holdup assay). Conditions: plain residues with an end cap or a label only (N-terminal biotin on a linker: ado-ado).
Sequence of HTRA1, Q92743 (Q92743 360-477): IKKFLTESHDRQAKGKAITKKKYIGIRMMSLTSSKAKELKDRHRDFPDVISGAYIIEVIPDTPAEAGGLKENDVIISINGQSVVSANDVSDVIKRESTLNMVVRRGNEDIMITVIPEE
Set-up: key: below the threshold = too weak to quantify, mostly under pKd 3.1 to 4
Work on RQSILFSTEV [BCR, P11274] yielded a pKd of 4.47.
Binder PLDSQQHTEV [FAT1, Q14517] has a pKd of 4.

The binders below were run against HTRA2, O43464 (assay: holdup assay). Conditions: plain residues with an end cap or a label only (N-terminal biotin on a linker: ado-ado).
Sequence of HTRA2, O43464 (O43464 355-458): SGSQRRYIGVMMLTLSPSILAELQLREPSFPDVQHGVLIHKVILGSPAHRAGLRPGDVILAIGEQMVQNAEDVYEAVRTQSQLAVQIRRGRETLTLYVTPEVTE
Set-up: key: below the threshold = too weak to quantify, mostly under pKd 3.1 to 4
In the case of RQSILFSTEV [BCR, P11274], the pKd is reported as “below the threshold”.
For PLDSQQHTEV [FAT1, Q14517], the pKd was “below the threshold”.

The binders below were run against IL16_1, Q14005 (assay: holdup assay). Conditions: plain residues with an end cap or a label only (N-terminal biotin on a linker: ado-ado).
Sequence of IL16_1, Q14005 (Q14005 210-306): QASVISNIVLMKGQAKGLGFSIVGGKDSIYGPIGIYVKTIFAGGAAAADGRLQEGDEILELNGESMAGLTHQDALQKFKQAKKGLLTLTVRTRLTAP
Set-up: key: below the threshold = too weak to quantify, mostly under pKd 3.1 to 4
With RQSILFSTEV [BCR, P11274] the pKd was 3.85.
With PLDSQQHTEV [FAT1, Q14517] the pKd was “below the threshold”.

These binders were tested against IL16_3, Q14005 (assay: holdup assay). Conditions: plain residues with an end cap or a label only (N-terminal biotin on a linker: ado-ado).
Sequence of IL16_3, Q14005 (Q14005 1107-1207): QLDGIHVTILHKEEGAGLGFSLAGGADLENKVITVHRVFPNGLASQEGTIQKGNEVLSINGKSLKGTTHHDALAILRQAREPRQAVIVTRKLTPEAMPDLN
Set-up: key: below the threshold = too weak to quantify, mostly under pKd 3.1 to 4
For RQSILFSTEV [BCR, P11274], the pKd was “below the threshold”.
PLDSQQHTEV [FAT1, Q14517] was tested, and the pKd was “below the threshold”.

The binders below were run against IL16_4, Q14005 (assay: holdup assay). Conditions: plain residues with an end cap or a label only (N-terminal biotin on a linker: ado-ado).
Sequence of IL16_4, Q14005 (Q14005 1229-1329): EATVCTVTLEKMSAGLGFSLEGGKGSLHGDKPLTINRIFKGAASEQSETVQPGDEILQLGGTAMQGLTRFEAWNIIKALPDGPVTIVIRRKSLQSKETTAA
Set-up: key: below the threshold = too weak to quantify, mostly under pKd 3.1 to 4
In the case of RQSILFSTEV [BCR, P11274], the pKd is reported as 3.54.
PLDSQQHTEV [FAT1, Q14517] was tested, and the pKd was “below the threshold”.

Each binder was assayed against Inadl_4, Q8NI35 (assay: holdup assay). Conditions: plain residues with an end cap or a label only (N-terminal biotin on a linker: ado-ado).
Sequence of Inadl_4, Q8NI35 (Q8NI35 547-651): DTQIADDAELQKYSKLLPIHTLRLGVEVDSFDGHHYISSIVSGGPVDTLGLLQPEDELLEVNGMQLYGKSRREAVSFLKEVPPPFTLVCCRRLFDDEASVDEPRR
Set-up: key: below the threshold = too weak to quantify, mostly under pKd 3.1 to 4
RQSILFSTEV [BCR, P11274] was tested, and the pKd was “below the threshold”.
In the case of PLDSQQHTEV [FAT1, Q14517], the pKd is reported as “below the threshold”.

Each binder was assayed against Inadl_8, Q8NI35 (assay: holdup assay). Conditions: plain residues with an end cap or a label only (N-terminal biotin on a linker: ado-ado).
Sequence of Inadl_8, Q8NI35 (Q8NI35 1425-1530): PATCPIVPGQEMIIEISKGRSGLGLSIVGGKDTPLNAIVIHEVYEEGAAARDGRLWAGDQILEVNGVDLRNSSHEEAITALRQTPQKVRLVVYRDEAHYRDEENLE
Set-up: key: below the threshold = too weak to quantify, mostly under pKd 3.1 to 4
RQSILFSTEV [BCR, P11274] showed a pKd of 4.49.
With PLDSQQHTEV [FAT1, Q14517] the pKd was “below the threshold”.

What follows are binders tested against LIMK2, P53671 (assay: holdup assay). Conditions: plain residues with an end cap or a label only (N-terminal biotin on a linker: ado-ado).
Sequence of LIMK2, P53671 (P53671 143-248): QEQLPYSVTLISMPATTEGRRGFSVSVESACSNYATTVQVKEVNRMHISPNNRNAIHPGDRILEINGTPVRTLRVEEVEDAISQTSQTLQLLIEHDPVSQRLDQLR
Set-up: key: below the threshold = too weak to quantify, mostly under pKd 3.1 to 4
For RQSILFSTEV [BCR, P11274], the pKd was “below the threshold”.
In the case of PLDSQQHTEV [FAT1, Q14517], the pKd is reported as “below the threshold”.

Each binder was assayed against T3, LIN7B, Q9HAP6 (assay: holdup assay). Conditions: plain residues with an end cap or a label only (N-terminal biotin on a linker: ado-ado).
Set-up: key: below the threshold = too weak to quantify, mostly under pKd 3.1 to 4
RQSILFSTEV [BCR, P11274] was tested, and the pKd was “below the threshold”.
For PLDSQQHTEV [FAT1, Q14517], the pKd was “below the threshold”.

Each binder was assayed against T4, LNX2_2, Q8N448 (assay: holdup assay). Conditions: plain residues with an end cap or a label only (N-terminal biotin on a linker: ado-ado).
Set-up: key: below the threshold = too weak to quantify, mostly under pKd 3.1 to 4
RQSILFSTEV [BCR, P11274] was tested, and the pKd was 4.71.
PLDSQQHTEV [FAT1, Q14517] gave a pKd of 4.35.

What follows are binders tested against T5, MPP2, Q14168 (assay: holdup assay). Conditions: plain residues with an end cap or a label only (N-terminal biotin on a linker: ado-ado).
Set-up: key: below the threshold = too weak to quantify, mostly under pKd 3.1 to 4
In the case of RQSILFSTEV [BCR, P11274], the pKd is reported as “below the threshold”.
PLDSQQHTEV [FAT1, Q14517] was tested, and the pKd was “below the threshold”.

Each binder was assayed against NHERF4_1, Q86UT5-2 (assay: holdup assay). Conditions: plain residues with an end cap or a label only (N-terminal biotin on a linker: ado-ado).
Sequence of NHERF4_1, Q86UT5-2 (Q86UT5 other isoform, or with tags, fused parts or gaps): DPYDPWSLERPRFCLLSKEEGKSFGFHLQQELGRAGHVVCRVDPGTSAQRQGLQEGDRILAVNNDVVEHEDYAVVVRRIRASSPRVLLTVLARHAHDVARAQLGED
Set-up: key: below the threshold = too weak to quantify, mostly under pKd 3.1 to 4
Work on RQSILFSTEV [BCR, P11274] yielded a pKd of 3.68.
With PLDSQQHTEV [FAT1, Q14517] the pKd was “below the threshold”.

These binders were tested against PARD3_3, Q8TEW0 (assay: holdup assay). Conditions: plain residues with an end cap or a label only (N-terminal biotin on a linker: ado-ado).
Sequence of PARD3_3, Q8TEW0 (Q8TEW0 582-685): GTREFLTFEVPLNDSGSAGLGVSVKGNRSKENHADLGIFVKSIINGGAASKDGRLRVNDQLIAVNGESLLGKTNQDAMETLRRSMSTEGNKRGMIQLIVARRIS
Set-up: key: below the threshold = too weak to quantify, mostly under pKd 3.1 to 4
For RQSILFSTEV [BCR, P11274], the pKd was “below the threshold”.
PLDSQQHTEV [FAT1, Q14517] was tested, and the pKd was “below the threshold”.

The binders below were run against T6, PCLO, Q9Y6V0 (assay: holdup assay). Conditions: plain residues with an end cap or a label only (N-terminal biotin on a linker: ado-ado).
Set-up: key: below the threshold = too weak to quantify, mostly under pKd 3.1 to 4
RQSILFSTEV [BCR, P11274] was tested, and the pKd was “below the threshold”.
With PLDSQQHTEV [FAT1, Q14517] the pKd was “below the threshold”.

These binders were tested against PDLIM1, O00151 (assay: holdup assay). Conditions: plain residues with an end cap or a label only (N-terminal biotin on a linker: ado-ado).
Sequence of PDLIM1, O00151 (O00151 1-87): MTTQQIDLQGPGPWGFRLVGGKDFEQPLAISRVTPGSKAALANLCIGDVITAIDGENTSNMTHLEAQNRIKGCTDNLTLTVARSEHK
Set-up: key: below the threshold = too weak to quantify, mostly under pKd 3.1 to 4
With RQSILFSTEV [BCR, P11274] the pKd was “below the threshold”.
In the case of PLDSQQHTEV [FAT1, Q14517], the pKd is reported as “below the threshold”.

Each binder was assayed against T7, PDZRN3_1, Q9UPQ7 (assay: holdup assay). Conditions: plain residues with an end cap or a label only (N-terminal biotin on a linker: ado-ado).
Set-up: key: below the threshold = too weak to quantify, mostly under pKd 3.1 to 4
RQSILFSTEV [BCR, P11274] showed a pKd of 4.03.
PLDSQQHTEV [FAT1, Q14517] was tested, and the pKd was “below the threshold”.

What follows are binders tested against T8, RHPN1, Q8TCX5 (assay: holdup assay). Conditions: plain residues with an end cap or a label only (N-terminal biotin on a linker: ado-ado).
Set-up: key: below the threshold = too weak to quantify, mostly under pKd 3.1 to 4
Work on RQSILFSTEV [BCR, P11274] yielded a pKd of 3.94.
Work on PLDSQQHTEV [FAT1, Q14517] yielded a pKd of 4.07.

These binders were tested against T9, SNTA1, Q13424 (assay: holdup assay). Conditions: plain residues with an end cap or a label only (N-terminal biotin on a linker: ado-ado).
Set-up: key: below the threshold = too weak to quantify, mostly under pKd 3.1 to 4
With RQSILFSTEV [BCR, P11274] the pKd was 4.47.
Binder PLDSQQHTEV [FAT1, Q14517] has a pKd of 4.22.

These binders were tested against T10, SNTG2, Q9NY99 (assay: holdup assay). Conditions: plain residues with an end cap or a label only (N-terminal biotin on a linker: ado-ado).
Set-up: key: below the threshold = too weak to quantify, mostly under pKd 3.1 to 4
Binder RQSILFSTEV [BCR, P11274] has a pKd of 4.1.
Work on PLDSQQHTEV [FAT1, Q14517] yielded a pKd of 3.67.

These binders were tested against SNX27, Q96L92 (assay: holdup assay). Conditions: plain residues with an end cap or a label only (N-terminal biotin on a linker: ado-ado).
Set-up: key: below the threshold = too weak to quantify, mostly under pKd 3.1 to 4
Binder RQSILFSTEV [BCR, P11274] has a pKd of 4.89.
PLDSQQHTEV [FAT1, Q14517] showed a pKd of 4.7.

Each binder was assayed against T11, TX1BP3, O14907 (assay: holdup assay). Conditions: plain residues with an end cap or a label only (N-terminal biotin on a linker: ado-ado).
Set-up: key: below the threshold = too weak to quantify, mostly under pKd 3.1 to 4
For RQSILFSTEV [BCR, P11274], the pKd was 4.82.
PLDSQQHTEV [FAT1, Q14517] was tested, and the pKd was 3.85.
